Laboratory results published in patent publication US20180264110A1 (STSCIENCES, published 2018).

T1: BTLA triple mutant (3NQ) (human, UniProt Q7Z6A9 31-289, limits assumed)
T1 construct: N to Q read from the label
T1 chain: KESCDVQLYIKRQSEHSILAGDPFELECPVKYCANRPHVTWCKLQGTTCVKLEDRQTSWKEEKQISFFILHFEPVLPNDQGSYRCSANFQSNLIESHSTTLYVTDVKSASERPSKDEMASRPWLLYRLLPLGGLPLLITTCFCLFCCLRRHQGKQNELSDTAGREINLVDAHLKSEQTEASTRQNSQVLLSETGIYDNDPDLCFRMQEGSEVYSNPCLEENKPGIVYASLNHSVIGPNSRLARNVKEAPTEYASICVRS

B1: STC613 (antibody, V domains shown)
VH: EVQLQQSGAELVRPGASVKLSCTASGFNIRDDYVHWLKQRPDQGLEWIGRIDPANGKTKYDPKFQDKATITADTSSNTAYLQLSSLTSEDTAVYFCVREGGSNYDYAMDYWGQGTSVTVSS
VL: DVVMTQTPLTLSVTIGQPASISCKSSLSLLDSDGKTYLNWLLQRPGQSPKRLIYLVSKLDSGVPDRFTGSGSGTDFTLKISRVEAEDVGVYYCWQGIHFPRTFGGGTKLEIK
notes: also called STM613
B2: STC626 (antibody, V domains shown)
VH: QIQLVQSGPELKKPGETVKISCKASGYTFTNYGMNWVKQAPGKGLKWMGWINTNTGEPTYAEEFKGRIAFSLESSASTAYLQINNLKNEDTATYFCAREGVRRGGYFFDYWGQGTTLTVSS
VL: DIQMTQSPASLSVSVGETVTITCRASENIYSNLAWYQQKQGKSPQLLVYAATNLADGVPSRFSGSGSGTQYSLKINSLQSEDFGSYHCQHFWGFPFTFGAGTKLEIKR

Key:
BTLA triple mutant (3NQ) = target: T1, BTLA triple mutant (3NQ); experiment: Western blot
Protocol: (§1) Immunoblot analysis was performed as described previously (Lim et al., 2008, Gastroenterology, 135:21 28-40; and Lee et al., 2007, Cell, 130:440-455). Image acquisition and quantitation of band intensity were performed using a Chemdoc Imager (BioRad, Hercules, Calif., US). The secondary antibodies were anti-mouse or -rabbit Alexa Fluor 488 or 594, and nuclei were stained with 4′,6-diamidino-2-phenylindole (DAPI) (Life Technologies, Carlsbad, Calif., US).
(§2) In the Western blot assays, anti-BTLA mAbs were tested for their ability to recognize fully glycosylated wild-type BTLA and to recognize certain BTLA mutants lacking two (N75/2NQ, N94/2NQ, N116/2NQ) or all three (3NQ) of BTLA's N-glycosylation sites. […] Generally, the band intensities shown in the Western blots of FIG. 2 indicate the specific glycosylation motif recognized by each of the tested antibodies and the binding strength of the tested antibodies to the recognized glycosylation motifs.

N75/2NQ [1] = target: T2, N75/2NQ (human, UniProt Q7Z6A9); experiment: Western blot of BTLA WT and glycosylation-site mutants probed with STC613 [continued]
T2 construct: double mutant, single glycosylation site N75; One member of the group m43; also called BTLA double mutant that retains only the N75 glycosylation site
Protocol: as §1, §2

N75/2NQ [2] = target: T2, N75/2NQ; experiment: Western blot of BTLA WT and glycosylation-site mutants probed with STC626 [continued]
Protocol: as §1, §2

Binder	binding result (BTLA triple mutant (3NQ))	binding result (N75/2NQ [1])	binding result (N75/2NQ [2])
B1	no binding	binds	–
B2	no binding	–	binds
